Earlier results as cited in article PMC8608346.

Target: FPR1 (Homo sapiens) (UniProt P21462)
Chain of UniProt P21462 (P21462 whole entry): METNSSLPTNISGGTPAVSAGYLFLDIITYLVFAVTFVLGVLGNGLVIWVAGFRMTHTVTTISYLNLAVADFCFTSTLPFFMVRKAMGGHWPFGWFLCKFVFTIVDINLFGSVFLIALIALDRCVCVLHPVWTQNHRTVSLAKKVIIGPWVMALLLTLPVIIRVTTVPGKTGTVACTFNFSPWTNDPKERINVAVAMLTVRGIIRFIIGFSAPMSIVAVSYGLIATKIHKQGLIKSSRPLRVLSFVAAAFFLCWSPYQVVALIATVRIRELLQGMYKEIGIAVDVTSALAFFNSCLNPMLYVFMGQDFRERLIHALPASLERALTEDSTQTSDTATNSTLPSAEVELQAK

## FAM19A4 (from UniProt Q96LR4)
  Kd: 0.447 nM
